These results are taken from paper PMC5321513 (Structure (London, England : 1993), 2017).

The chains are these.
B1: 14-3-3σ Clu3 (1-231) (domain or fragment, human)
chain: GPHMERASLIQKAKLAEQAERYEDMAAFMKGAVEKGEELSCEERNLLSVAYKNVVGGQRAAWRVLSSIEQKSNEEGSAAAGPEVREYREKVETELQGVCDTVLGLLDSHLIKEAGDAESRVFYLKMKGDYYRYLAEVATGDDKKRIIDSARSAYQEAMDISKKEMPPTNPIRLGLALNFSVFHYEIANSPEEAISLAKTTFDEAMADLHTLSEDSYKDSTLIMQLLRDNLTLWT
B2: 14-3-3σ Clu1 (1-231) (domain or fragment, human)
chain: B1 chain with A78E, A79E, A80K, K162A, K163A, E164A
B3: pHSPB6 (7-153) (domain or fragment, human, UniProt O14558 7-153, looked up)
chain: VQPSWLRRASAPLPGLSAPGRLFDQRFGEGLLEAELAALCPTTLAPYYLRAPSVALPVAQVPTDPGHFSVLLDVKHFSPEEIAVKVVGEHVEVHARHEERPDEHGFVAREFHRRYRLPPGVDPAAVTSALSPEGVLSIQAAPASAQA
modifications: phosphoserine at 16
B4: pHSPB6(11-23) phosphopeptide (peptide, UniProt O14558 11-23, looked up)
peptide: H-WLRRA[pS]APLPGLS-OH
SMILES: CC(C)C[C@H](NC(=O)CNC(=O)[C@@H]1CCCN1C(=O)[C@H](CC(C)C)NC(=O)[C@@H]1CCCN1C(=O)[C@H](C)NC(=O)[C@H](COP(=O)(O)O)NC(=O)[C@H](C)NC(=O)[C@H](CCCNC(=N)N)NC(=O)[C@H](CCCNC(=N)N)NC(=O)[C@H](CC(C)C)NC(=O)[C@@H](N)Cc1c[nH]c2ccccc12)C(=O)N[C@@H](CO)C(=O)O
B5: pHSPB6 (1-149) (domain or fragment, human, UniProt O14558 1-149, looked up)
chain: MEIPVPVQPSWLRRASAPLPGLSAPGRLFDQRFGEGLLEAELAALCPTTLAPYYLRAPSVALPVAQVPTDPGHFSVLLDVKHFSPEEIAVKVVGEHVEVHARHEERPDEHGFVAREFHRRYRLPPGVDPAAVTSALSPEGVLSIQAAPA
modifications: phosphoserine at 16
B6: 14-3-3σ WT (1-231) (domain or fragment, human)
chain: GAMGSMERASLIQKAKLAEQAERYEDMAAFMKGAVEKGEELSCEERNLLSVAYKNVVGGQRAAWRVLSSIEQKSNEEGSEEKGPEVREYREKVETELQGVCDTVLGLLDSHLIKEAGDAESRVFYLKMKGDYYRYLAEVATGDDKKRIIDSARSAYQEAMDISKKEMPPTNPIRLGLALNFSVFHYEIANSPEEAISLAKTTFDEAMADLHTLSEDSYKDSTLIMQLLRDNLTLWT
B7: HSPB6 ACD (residues 72 to 149) (domain or fragment, human, UniProt O14558 72-149, looked up)
chain: GHFSVLLDVKHFSPEEIAVKVVGEHVEVHARHEERPDEHGFVAREFHRRYRLPPGVDPAAVTSALSPEGVLSIQAAPA
B8: full-length pHSPB6 (1-160) (natural protein, human, UniProt O14558 1-160, looked up)
chain: MEIPVPVQPSWLRRASAPLPGLSAPGRLFDQRFGEGLLEAELAALCPTTLAPYYLRAPSVALPVAQVPTDPGHFSVLLDVKHFSPEEIAVKVVGEHVEVHARHEERPDEHGFVAREFHRRYRLPPGVDPAAVTSALSPEGVLSIQAAPASAQAPPPAAAK
modifications: phosphoserine at 16

Positions count from the first letter of the chain named. Where two headings read alike, the source gives them in different places. [ ]: non-standard residue; d: D form. pS = N[C@@H](COP(=O)(O)O)C(=O)O

The series “crystal structure” concerns the molecule itself. The series can be described thus: crystal structure.
Series [1] concerns the target B6. The series can be described thus: SEC.
The target of the next series is T1, 14-3-3β (1-232) (human, UniProt P31946 1-232).
T1 sequence: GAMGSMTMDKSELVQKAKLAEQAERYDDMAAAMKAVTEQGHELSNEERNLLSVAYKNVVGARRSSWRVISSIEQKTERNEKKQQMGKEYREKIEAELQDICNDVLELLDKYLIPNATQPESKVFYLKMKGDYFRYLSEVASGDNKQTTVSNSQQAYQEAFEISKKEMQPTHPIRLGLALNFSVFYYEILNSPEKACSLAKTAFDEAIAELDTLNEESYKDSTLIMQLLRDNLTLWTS
The series can be described thus: SEC. A general note: SEC sorts molecules by how far they enter the pores of the column.

The next series deals with T2, 14-3-3ε (1-232) (human, UniProt P62258 1-232).
T2 sequence: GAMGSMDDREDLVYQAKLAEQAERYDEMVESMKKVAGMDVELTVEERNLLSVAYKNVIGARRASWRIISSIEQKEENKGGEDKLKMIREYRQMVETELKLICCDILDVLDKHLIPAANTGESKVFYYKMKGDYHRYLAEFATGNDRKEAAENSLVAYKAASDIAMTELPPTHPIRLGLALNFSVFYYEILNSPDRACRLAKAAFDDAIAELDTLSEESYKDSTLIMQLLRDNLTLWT
The experiment in a line: SEC.

In series [2] the target is T3, full-length human 14-3-3γ (human, UniProt P61981 1-247).
T3 sequence (looked up): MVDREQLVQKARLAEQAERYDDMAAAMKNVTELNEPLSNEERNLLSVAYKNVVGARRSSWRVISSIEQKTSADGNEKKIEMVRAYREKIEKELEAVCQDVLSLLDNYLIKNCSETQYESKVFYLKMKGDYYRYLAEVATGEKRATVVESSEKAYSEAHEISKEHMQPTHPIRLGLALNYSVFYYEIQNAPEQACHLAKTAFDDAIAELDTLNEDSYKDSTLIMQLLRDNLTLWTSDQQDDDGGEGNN
The series can be described thus: SEC.

A further series has as its target T4, 14-3-3τ (1-230) (human, UniProt P27348 1-230).
T4 sequence: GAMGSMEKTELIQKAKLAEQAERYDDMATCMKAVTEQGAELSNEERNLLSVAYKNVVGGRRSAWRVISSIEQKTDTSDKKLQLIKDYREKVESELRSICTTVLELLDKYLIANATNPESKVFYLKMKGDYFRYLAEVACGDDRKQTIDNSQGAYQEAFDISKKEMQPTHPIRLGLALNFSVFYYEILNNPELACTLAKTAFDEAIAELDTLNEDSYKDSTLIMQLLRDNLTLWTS
The series can be described thus: SEC.

For series [3], the target named is T5, full-length human 14-3-3ζ (human, UniProt P63104 1-245).
T5 sequence (looked up): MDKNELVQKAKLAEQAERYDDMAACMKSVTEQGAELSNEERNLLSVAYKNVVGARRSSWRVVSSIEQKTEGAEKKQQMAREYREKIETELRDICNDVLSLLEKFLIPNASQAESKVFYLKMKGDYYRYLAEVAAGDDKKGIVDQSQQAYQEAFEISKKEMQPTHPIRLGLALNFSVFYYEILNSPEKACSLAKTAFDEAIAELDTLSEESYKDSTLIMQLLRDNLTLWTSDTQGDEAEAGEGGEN
The series can be described thus: SEC.

The target in another series is T6, 14-3-3η (1-235) (human, UniProt Q04917 1-235).
T6 sequence: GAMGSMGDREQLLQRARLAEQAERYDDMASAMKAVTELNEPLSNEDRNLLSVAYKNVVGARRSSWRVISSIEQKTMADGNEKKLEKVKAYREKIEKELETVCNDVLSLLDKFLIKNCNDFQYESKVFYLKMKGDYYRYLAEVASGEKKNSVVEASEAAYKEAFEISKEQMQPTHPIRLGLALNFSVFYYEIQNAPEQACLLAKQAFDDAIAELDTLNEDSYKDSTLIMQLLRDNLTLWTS
The series can be described thus: SEC.

The target in series [4] is B2. The series can be described thus: crystal structure.
The target in series [5] is B6. The experiment in a line: ITC. Background: In ITC the heat of successive injections is recorded.
The target in series [6] is T3, full-length human 14-3-3γ. The experiment in a line: ITC.
The target of series [7] is B6. The experiment in a line: other fluorescence titration.
Series [8] concerns the target B2. The series can be described thus: crystal structure. The source holds these as a separate data set.

Consider B1, for which the binding result in the series “crystal structure” is “binds”.

Turning to B2, the binding result in “crystal structure” is on record as “binds”.

B3: the binding result (in the series with 14-3-3σ WT (1-231) [1]; with 14-3-3β (1-232); with 14-3-3ε (1-232); in [2]; with 14-3-3τ (1-230); in [3]) was “binds” throughout. For the same molecule, the binding result with 14-3-3η (1-235) and with 14-3-3σ Clu1 (1-231) [4] was “binds” in each case.

In the case of B4, in the series with 14-3-3σ WT (1-231) [5], the affinity, expressed as Kd, was 6.3 ± 0.5 µM and the “stoichiometry N” value was found to be 1. In series [6], binding was characterised by a dissociation constant (Kd) of 2.3 ± 0.3 µM and the “stoichiometry N” value was 1. Besides, in the series with 14-3-3σ WT (1-231) [7], 28.9 ± 0.9 µM corresponded to half-maximal inhibition (IC50) and the Kd stood at 5.2 ± 0.5 µM.

On to B5, for which the binding result (with 14-3-3σ WT (1-231) [1]; with 14-3-3β (1-232); in the series with 14-3-3ε (1-232); in series [2]; with 14-3-3τ (1-230); in series [3]) was “binds” in each case. In addition, the binding result in the series with 14-3-3η (1-235) and with 14-3-3σ Clu1 (1-231) [8] was “binds” each time.

As to B6, in the series “crystal structure”, the binding result is “binds”.

B7: the binding result in the series “crystal structure” was “binds”.

Turning to B8, the binding result (with 14-3-3β (1-232); in the series with 14-3-3ε (1-232); in series [2]; in the series with 14-3-3τ (1-230); in [3]; with 14-3-3η (1-235)) was “binds” in each case. Also, in the series with 14-3-3σ Clu1 (1-231) [4], the binding result is given as “binds”.

For orientation: Kd means a measure of binding affinity in units of concentration. Usually stoichiometry N stands for a count of units in the complex or per binding partner. As a reminder, the IC50 is the point on the concentration scale where inhibition reaches its midpoint. Read a low IC50 as higher potency.
